Assay [1] addresses OT-1 TCR (OVA-restricted T cell receptor) (mouse).
Assay [2] addresses P14 TCR (gp33-specific T cell receptor) (mouse).

Values joined by “and” are separate entries in the source; they are usually repeats but may differ in a detail not shown here. Identical values can stand only once.

Chain of P14 TCR (gp33-specific T cell receptor) (mouse) (chain, as listed by the source limits assumed): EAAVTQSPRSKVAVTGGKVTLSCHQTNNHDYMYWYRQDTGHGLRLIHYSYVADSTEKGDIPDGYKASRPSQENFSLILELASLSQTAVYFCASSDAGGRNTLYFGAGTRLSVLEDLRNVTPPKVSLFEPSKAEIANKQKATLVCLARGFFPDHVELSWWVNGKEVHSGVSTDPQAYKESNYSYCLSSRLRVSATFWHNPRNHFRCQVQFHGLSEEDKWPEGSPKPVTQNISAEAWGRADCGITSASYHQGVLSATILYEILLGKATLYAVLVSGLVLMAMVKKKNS
Chain of OT-1 TCR (OVA-restricted T cell receptor) (mouse) (chain, as listed by the source limits assumed, chain 1 of 2): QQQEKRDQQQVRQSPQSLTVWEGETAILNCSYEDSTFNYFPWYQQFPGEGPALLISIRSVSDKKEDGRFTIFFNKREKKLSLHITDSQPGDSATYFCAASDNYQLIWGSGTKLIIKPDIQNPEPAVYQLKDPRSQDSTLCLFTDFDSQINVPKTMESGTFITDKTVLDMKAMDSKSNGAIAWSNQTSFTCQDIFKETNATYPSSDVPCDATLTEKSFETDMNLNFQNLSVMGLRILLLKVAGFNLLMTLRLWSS
Chain of OT-1 TCR (OVA-restricted T cell receptor) (mouse) (chain, as listed by the source limits assumed, chain 2 of 2): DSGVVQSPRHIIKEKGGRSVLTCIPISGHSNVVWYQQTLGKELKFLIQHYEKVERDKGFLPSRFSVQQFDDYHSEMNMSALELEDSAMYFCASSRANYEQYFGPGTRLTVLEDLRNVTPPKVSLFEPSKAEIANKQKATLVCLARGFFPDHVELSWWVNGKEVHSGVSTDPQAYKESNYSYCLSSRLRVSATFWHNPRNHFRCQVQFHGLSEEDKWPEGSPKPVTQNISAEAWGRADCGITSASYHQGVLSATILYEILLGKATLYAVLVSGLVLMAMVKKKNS

Consider OVA Pentamer (peptide-MHC), for which, in assay [1], the percent OVA Pentamer+ GFP+ cells (Q2) (% (unit not given)) was found to be 6.66 and the percent OVA Pentamer+ GFP- cells (Q3, upper left quadrant) (% (unit not given)) is 26.
For P14 TCR (y-axis stain) (antibody), the percent P14 TCR+ GFP- cells (Q1) (% (unit not given)) in assay [2] was 89.5 and 96.7 and 36.5.

The values above are taken from patent US20260226500A1.
